Positions count from the first letter of the chain named. Where two headings read alike, the source gives them in different places. Blank lines part the entries; values can stand above or below the molecule they belong to.
What was measured:
[1] = target: T1, human 2Ig-B7H3 (B7H3-2Ig-His) (human, UniProt Q5ZPR3 29-466); test: SPR, Biacore T200, 2Ig-B7H3-His on CM5 chip, 1:1 fit
T1 construct: Recombinant His-tagged protein immobilised on a CM5 chip; also called 21g-B7H3; B7H3-21g-His; not shown: His tag
T1 sequence: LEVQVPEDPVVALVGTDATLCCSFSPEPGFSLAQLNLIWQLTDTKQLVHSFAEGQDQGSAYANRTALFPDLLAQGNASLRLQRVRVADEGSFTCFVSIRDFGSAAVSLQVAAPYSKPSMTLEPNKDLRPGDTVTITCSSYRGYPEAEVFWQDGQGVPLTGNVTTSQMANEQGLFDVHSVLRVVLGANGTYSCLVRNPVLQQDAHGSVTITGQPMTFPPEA

[2] = target: T2, human 4Ig-B7H3 (B7H3-4Ig-His) (human, UniProt Q5ZPR3 29-466); test: SPR, Biacore T200, 4Ig-B7H3-His on CM5 chip, 1:1 fit
T2 construct: Recombinant His-tagged protein immobilised on a CM5 chip; also called 41g-B7H3; human 4Ig-B7-H3 (dominant isoform); not shown: His tag
T2 sequence: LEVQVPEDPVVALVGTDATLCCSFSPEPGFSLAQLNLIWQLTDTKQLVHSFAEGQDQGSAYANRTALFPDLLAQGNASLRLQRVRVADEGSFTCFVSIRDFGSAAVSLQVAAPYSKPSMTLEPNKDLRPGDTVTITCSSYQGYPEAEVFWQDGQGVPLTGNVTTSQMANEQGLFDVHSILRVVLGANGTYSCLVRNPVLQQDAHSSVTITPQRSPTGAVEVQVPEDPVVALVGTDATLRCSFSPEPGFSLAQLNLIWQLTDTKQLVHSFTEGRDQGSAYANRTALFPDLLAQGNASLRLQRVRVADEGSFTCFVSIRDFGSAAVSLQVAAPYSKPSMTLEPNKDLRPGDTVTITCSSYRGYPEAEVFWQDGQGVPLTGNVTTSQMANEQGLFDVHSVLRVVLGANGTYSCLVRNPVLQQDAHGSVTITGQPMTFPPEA

[3] = target: T1, human 2Ig-B7H3 (B7H3-2Ig-His); test: SPR, Biacore T200, 2Ig-B7H3-His on CM5 chip, 1:1 fit; * beyond fitting limits
[4] = target: T1, human 2Ig-B7H3 (B7H3-2Ig-His); test: SPR, Biacore T200, 2Ig-B7H3-His on CM5 chip, 1:1 fit; remark: listed apart in the source
Experimental: (§1) Both human B7H3 41g and 21g proteins were dissolved in PBS (Phosphate-Buffered Saline) to make 0.1 mg/ml stock solution and stored in −80° C. B7-H3 proteins were immobilized onto the CM5 sensor chip using Amine Coupling Kit. Both proteins were diluted to 10 ug/ml with 10 mM Sodium acetate, pH 5.0. […] A blank immobilized surface was used as a control
(§2) Binding Assays: [0143] 1. Antibodies were diluted in HBS-EP buffer (10 mM HEPES, 150 mM NaCl, 3 mM EDTA, 0.05% Surfactant P20, pH 7.4) at varying concentrations (25-50-100-200-400 nM) prior to analysis. […] 2. Samples (60 ul) were injected over the sensor surface at a flow rate of 30 ul/min over 2 min. [0145] 3. Following completion of the association phase, dissociation was monitored in HBS-EP buffer for 10 min at the same flow rate. […] 4. At the end of each cycle, the surface was regenerated using 10 mM NaOH at a flow rate of 50 ul/min over 2×15 sec.
(§3) The data were analyzed by the 1:1 fitting model and default parameter setting for the rate constants using the Biacore T200 Evaluation Software, and the apparent association on rate constant (kon, ka), dissociation off rate constant (koff, kd) and equilibrium dissociation constant (KD=kd/ka) were calculated.

[5] = target: T2, human 4Ig-B7H3 (B7H3-4Ig-His); test: SPR, Biacore T200, 4Ig-B7H3-His on CM5 chip, 1:1 fit; remark: listed apart in the source
Experimental: as §1, §2

[6] = target: T1, human 2Ig-B7H3 (B7H3-2Ig-His); test: SPR, Biacore T200, 2Ig-B7H3-His on CM5 chip, 1:1 fit; remark: listed apart in the source
Experimental: as §1, §3

[7] = target: T2, human 4Ig-B7H3 (B7H3-4Ig-His); test: SPR, Biacore T200, 4Ig-B7H3-His on CM5 chip, 1:1 fit; remark: listed apart in the source
Experimental: as §1, §3

[8] = target: T2, human 4Ig-B7H3 (B7H3-4Ig-His); test: SPR
Experimental: as §1, §3

[9] = target: T1, human 2Ig-B7H3 (B7H3-2Ig-His); test: SPR
Experimental: as §1, §3

[10] = target: T1, human 2Ig-B7H3 (B7H3-2Ig-His); test: SPR; CHX-A''-DTPA conjugate, CAR 1.4, labeled with cold 175Lu
Experimental: as §1, §2

[11] = target: T1, human 2Ig-B7H3 (B7H3-2Ig-His); test: SPR; CHX-A''-DTPA conjugate, CAR 3, labeled with cold 175Lu
Experimental: as §1, §2

[12] = target: T2, human 4Ig-B7H3 (B7H3-4Ig-His); test: SPR; remark: listed apart in the source
Experimental: as §1, §2

[13] = target: T1, human 2Ig-B7H3 (B7H3-2Ig-His); test: SPR; remark: listed apart in the source
Experimental: as §1, §2

[14] = target: T1, human 2Ig-B7H3 (B7H3-2Ig-His); test: SPR; CHX-A''-DTPA conjugate, CAR 0.6, unlabeled
[15] = target: T1, human 2Ig-B7H3 (B7H3-2Ig-His); test: SPR, Biacore T200, 2Ig-B7H3-His on CM5 chip, 1:1 fit; CHX-A''-DTPA conjugate, CAR 3.6, unlabeled
[16] = target: T1, human 2Ig-B7H3 (B7H3-2Ig-His); test: SPR; CHX-A''-DTPA conjugate, CAR 1.4, unlabeled
[17] = target: T1, human 2Ig-B7H3 (B7H3-2Ig-His); test: SPR, Biacore T200, 2Ig-B7H3-His on CM5 chip, 1:1 fit; CHX-A''-DTPA conjugate, CAR 6.1, labeled with cold 175Lu
Experimental: as §1, §2

[18] = target: T1, human 2Ig-B7H3 (B7H3-2Ig-His); test: SPR, Biacore T200, 2Ig-B7H3-His on CM5 chip, 1:1 fit; DOTA conjugate, CAR 6.3, labeled with cold 175Lu
Experimental: as §1, §2

Kd [6]: 2.22 nM
koff [6]: 0.000102 s⁻¹
kon [6]: 45900 M⁻¹ s⁻¹
t ½ [6]: 1.89 h
Kd [7]: 8.87 nM
koff [7]: 0.000251 s⁻¹
kon [7]: 28300 M⁻¹ s⁻¹
t ½ [7]: 0.769 h
B2: hu8H9-3.1 (antibody, V domains shown)
VH: QVQLVQSGAEVVKPGASVKLSCKTSGYTFTNYDINWVRQRPGQGLEWIGWIFPGDDSTQYNEKFKGKATLTTDTSTSTAYMELSSLRSEDTAVYFCARQTTGTWFAYWGQGTLVTVSS
VL: EIVMTQSPATLSVSPGERVTLSCRASQSISDYLYWYQQKSHESPRLLIKYASQSISGIPARFSGSGSGSEFTLTINSVEPEDVGVYYCQNGHSFPLTFGQGTKLELKR

Kd [8]: 7.64 nM
t ½ [8]: 1.26 h
t ½ [9]: 28.1 h
Kd [6]: 0.217 nM
t ½ [6]: 28.1 h
Kd [7]: 7.64 nM
t ½ [7]: 1.26 h
Kd [10]: < 0.316 nM
B3: 175Lu-DTPA-8H9-antibody (CAR1.4) (antibody, mouse IgG1, kappa, V domains shown)
VH: QVQLQQSGAELVKPGASVKLSCKASGYTFTNYDINWVRQRPEQGLEWIGWIFPGDGSTQYNEKFKGKATLTTDTSSSTAYMQLSRLTSEDSAVYFCARQTTATWFAYWGQGTLVTVSA
VL: B2 VL with E1D, S14T, E17D, T20S, Y34H, A60S, E70D, T74S, Q100A
modifications: p-SCN-Bn-CHX-A″-DTPA conjugated (CAR 1.4 per antibody), labelled with cold lutetium-175; sites not stated

Kd [8]: 16.2 nM
t ½ [8]: 0.811 h
t ½ [9]: 5.94 h
Kd [6]: 1.8 nM
t ½ [6]: 5.94 h
Kd [7]: 16.2 nM
t ½ [7]: 0.811 h
Kd [11]: 1.8 nM
B4: 175Lu-DTPA-8H9-antibody (CAR3) (antibody, mouse IgG1, kappa, V domains shown)
VH: B3 VH
VL: B2 VL with E1D, S14T, E17D, T20S, Y34H, A60S, E70D, T74S, Q100A
modifications: p-SCN-Bn-CHX-A″-DTPA conjugated (CAR 3 per antibody), labelled with cold lutetium-175; sites not stated

Kd [6]: 1.74 nM
t ½ [6]: 6.11 h
Kd [7]: 15.7 nM
t ½ [7]: 0.822 h
B8: 175Lu-DOTA-8H9-antibody (CAR2.6) (antibody, mouse IgG1, kappa, V domains shown)
VH: B3 VH
VL: B2 VL with E1D, S14T, E17D, T20S, Y34H, A60S, E70D, T74S, Q100A
modifications: p-SCN-Bn-DOTA conjugated (CAR 2.6 per antibody), labelled with cold lutetium-175; sites not stated

Kd [8]: 34 nM
t ½ [8]: 0.4 h
t ½ [9]: 1.82 h
t ½ [6]: 1.82 h
Kd [7]: 34 nM
t ½ [7]: 0.4 h
Kd [17]: 7.21 nM
B11: 175Lu-DTPA-8H9-antibody (CAR6.1) (antibody, mouse IgG1, kappa, V domains shown)
VH: B3 VH
VL: B2 VL with E1D, S14T, E17D, T20S, Y34H, A60S, E70D, T74S, Q100A
modifications: p-SCN-Bn-CHX-A″-DTPA conjugated (CAR 6.1 per antibody), labelled with cold lutetium-175; sites not stated

t ½ [6]: 5.39 h
Kd [7]: 19.5 nM
t ½ [7]: 0.742 h
Kd [18]: 2.34 nM
B12: 175Lu-DOTA-8H9-antibody (CAR6.3) (antibody, mouse IgG1, kappa, V domains shown)
VH: B3 VH
VL: B2 VL with E1D, S14T, E17D, T20S, Y34H, A60S, E70D, T74S, Q100A
modifications: p-SCN-Bn-DOTA conjugated (CAR 6.3 per antibody), labelled with cold lutetium-175; sites not stated

The remaining lines, values behind:

Molecule: 127I-Humanized-8H9-antibody
Kd [1]: 0.00212 nM
kon [1]: 361000 M⁻¹ s⁻¹
t ½ [1]: 251 h
Kd [2]: 0.24 nM
koff [2]: 2.68e-05 s⁻¹
kon [2]: 112000 M⁻¹ s⁻¹
t ½ [2]: 7.17 h
koff [3]: 7.66e-07 s⁻¹

B1: 8H9 antibody conjugated with p-SCN-Bn-DOTA, CAR 0.8 (antibody, mouse IgG1, kappa, V domains shown)
VH: B3 VH
VL: B2 VL with E1D, S14T, E17D, T20S, Y34H, A60S, E70D, T74S, Q100A
modifications: p-SCN-Bn-DOTA conjugated, CAR 0.8 per antibody; sites not stated
notes: Chelator conjugate, not metal-labelled
Kd [4]: 0.166 nM
T ½ [4]: 39.2 h
Kd [5]: 5.76 nM
t ½ [5]: 1.67 h

B5: 8H9 antibody conjugated with p-SCN-Bn-CHX-A″-DTPA, CAR 0.6 (antibody, mouse IgG1, kappa, V domains shown)
VH: B3 VH
VL: B2 VL with E1D, S14T, E17D, T20S, Y34H, A60S, E70D, T74S, Q100A
modifications: p-SCN-Bn-CHX-A″-DTPA conjugated, CAR 0.6 per antibody; sites not stated
notes: Chelator conjugate, not metal-labelled; also called conj-CHX-A″-DTPA (CAR0.6)
Kd [12]: 10.1 nM
t ½ [12]: 0.883 h
t ½ [13]: 5.72 h
Kd [14]: 1.22 nM
Kd [4]: 1.22 nM
T ½ [4]: 5.72 h
Kd [5]: 10.1 nM
t ½ [5]: 0.883 h

B6: 8H9 antibody conjugated with p-SCN-Bn-CHX-A″-DTPA, CAR 3.6 (antibody, mouse IgG1, kappa, V domains shown)
VH: B3 VH
VL: B2 VL with E1D, S14T, E17D, T20S, Y34H, A60S, E70D, T74S, Q100A
modifications: p-SCN-Bn-CHX-A″-DTPA conjugated, CAR 3.6 per antibody; sites not stated
notes: as for B1
Kd [12]: 26.9 nM
t ½ [12]: 0.508 h
t ½ [13]: 1.25 h
T ½ [4]: 1.25 h
Kd [5]: 26.9 nM
t ½ [5]: 0.508 h
Kd [15]: 9.46 nM

B7: 8H9 antibody conjugated with p-SCN-Bn-CHX-A″-DTPA, CAR 1.4 (antibody, mouse IgG1, kappa, V domains shown)
VH: B3 VH
VL: B2 VL with E1D, S14T, E17D, T20S, Y34H, A60S, E70D, T74S, Q100A
modifications: p-SCN-Bn-CHX-A″-DTPA conjugated, CAR 1.4 per antibody; sites not stated
notes: as for B1
Kd [12]: 10 nM
t ½ [12]: 1.09 h
t ½ [13]: 3.94 h
Kd [16]: 1.93 nM
Kd [4]: 1.93 nM
T ½ [4]: 3.94 h
Kd [5]: 10 nM
t ½ [5]: 1.09 h

B9: 8H9 antibody conjugated with p-SCN-Bn-DOTA, CAR 7.5 (antibody, mouse IgG1, kappa, V domains shown)
VH: B3 VH
VL: B2 VL with E1D, S14T, E17D, T20S, Y34H, A60S, E70D, T74S, Q100A
modifications: p-SCN-Bn-DOTA conjugated, CAR 7.5 per antibody; sites not stated
notes: as for B1
Kd [4]: 1.71 nM
T ½ [4]: 6.58 h
Kd [5]: 14.6 nM
t ½ [5]: 1.03 h

B10: 8H9 antibody conjugated with p-SCN-Bn-DOTA, CAR 2.4 (antibody, mouse IgG1, kappa, V domains shown)
VH: B3 VH
VL: B2 VL with E1D, S14T, E17D, T20S, Y34H, A60S, E70D, T74S, Q100A
modifications: p-SCN-Bn-DOTA conjugated, CAR 2.4 per antibody; sites not stated
notes: as for B1
Kd [4]: 0.222 nM
T ½ [4]: 41.1 h
Kd [5]: 8.61 nM
t ½ [5]: 1.4 h

B13: 8H9 antibody conjugated with p-SCN-Bn-DOTA, CAR 2.6 (antibody, mouse IgG1, kappa, V domains shown)
VH: B3 VH
VL: B2 VL with E1D, S14T, E17D, T20S, Y34H, A60S, E70D, T74S, Q100A
modifications: p-SCN-Bn-DOTA conjugated, CAR 2.6 per antibody; sites not stated
notes: as for B1
Kd [4]: 0.58 nM
T ½ [4]: 14 h
Kd [5]: 7.57 nM
t ½ [5]: 1.42 h
